Measurements as given in patent publication US20240158511A1 (GENERAL HOSPITAL, published 2024).

Key:
A-domain of CD11b [1] = biological target: T1, A-domain of CD11b (UniProt P11215 139-337); test: BLI (Octet), A-domain of CD11b as ligand
T1 construct: domain: A-domain; Used as the ligand in BLI (Octet); also called CD11b A-domain; CD11bA domain
Method: Production, purification, and evaluation: Expi293 cells (Thermo Fisher) were used to produce recombinant antibodies. Cells were grown on orbital shaker (125 rpm) in Expi293 Expression Medium (Thermo Fisher) at 37° C. in 5% CO2. Expi293 cells were transiently transfected with 1:1 heavy chain and light chain plasmids, using manufacturer's protocol. Culture supernatant was harvested after one week, and IgG was purified using Protein G agarose beads (Thermo Scientific). We routinely obtained 1-3 mg of purified IgG per 100 ml of cell culture. The protein sizes of the heavy and light chains and purity of the IgG were confirmed on SDSPAGE. Affinity of the humanized mAb107 vs. mouse mAb107 was measured using the A-domain of CD11b as ligand by Bio-layer interferometry (BLI) using the Octet Assay system.

A-domain of CD11b [2] = biological target: T1, A-domain of CD11b; test: assay not given; presumably BLI on the CD11b A-domain as in Example 1; lower end of the printed range 5-9 nM

T1 sequence (P11215 139-337 limits assumed): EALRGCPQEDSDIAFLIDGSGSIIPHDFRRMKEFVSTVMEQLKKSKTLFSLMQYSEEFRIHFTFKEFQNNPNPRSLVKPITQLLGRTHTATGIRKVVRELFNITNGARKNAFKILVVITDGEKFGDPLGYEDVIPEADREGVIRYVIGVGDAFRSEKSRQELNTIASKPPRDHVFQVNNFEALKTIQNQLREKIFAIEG

B1: humanized N55D-substituted mAb107 (humanized IgG4κ mAb107) (antibody, V domains shown)
VH: QVQLVQSGAEVKKPGASVKVSCKPSGFNIKDIYMQWVRQAPGQRLEWIGRIDPADDKTKYDPKFQGRATITADTSASTAYLELSSLRSEDTAVYYCASEGHYGYDGYAMDYWGQGTTVTVSS
VL: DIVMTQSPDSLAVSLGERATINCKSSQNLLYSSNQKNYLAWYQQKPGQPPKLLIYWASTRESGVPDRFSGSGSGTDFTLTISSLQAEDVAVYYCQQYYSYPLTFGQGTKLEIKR
notes: The VH was joined to a human IgG4 constant region and the VL to a human kappa constant region; also called humAb107; humanized mAb107
- Kd (A-domain of CD11b [1]): 5 to 9 nM

B2: Humanized mutagenized mAb107 IgG4k heavy chain V5 (antibody, V domains shown)
VH: B1 VH
VL: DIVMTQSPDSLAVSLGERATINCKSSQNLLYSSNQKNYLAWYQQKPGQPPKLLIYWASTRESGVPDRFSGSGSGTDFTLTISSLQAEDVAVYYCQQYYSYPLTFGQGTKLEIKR
notes: The residue limits were counted on the printed translation; The heavy chain carries the N-to-D substitution in CDR2 and S228P in the IgG4 hinge; also called Humanized mutagenized anti-CD11b; humanized IgG4κ mAb107 containing Pro 228
- Kd (A-domain of CD11b [2]): 5 to 9 nM
